# In the supplement of paper PMC9112550, “Optimization of the antimicrobial peptide Bac7 by deep mutational scanning” (BMC Biology, 2022):
# System: Escherichia coli TOP10
# Assay: shrunken log2 fold change of peptide-encoding DNA abundance (4.5 h post-induction vs induction); higher = less antimicrobial activity (less host growth inhibition)
# Conditions: time post-induction: 4.5 h; library: site-saturation at positions 5, 18, 19, 20
# 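Further: peptides expressed intracellularly from a pBAD plasmid library in pooled LB shake-flask culture, induced with 0.3% L-arabinose, DNA abundance read by NGS, three biological replicates, DESeq2 with apeglm shrinkage.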
row,Sequence,shrunken log2 fold change
1,RRIRFRPPRLPRPRPRPLIIPRP,-0.575
2,RRIRYRPPRLPRPRPRPRNKPRP,-0.661
3,RRIRTRPPRLPRPRPRPLSDPRP,-0.029
4,RRIRCRPPRLPRPRPRPEPYPRP,-0.364
5,RRIRRRPPRLPRPRPRPVQTPRP,0.178
6,RRIRHRPPRLPRPRPRPKALPRP,0.0359
7,RRIRRRPPRLPRPRPRPYNGPRP,-0.0173
8,RRIRPRPPRLPRPRPRPGASPRP,0.344
9,RRIRWRPPRLPRPRPRPVWKPRP,0.0259
10,RRIRMRPPRLPRPRPRPAQWPRP,0.533
11,RRIRARPPRLPRPRPRPVYQPRP,-0.068
12,RRIRLRPPRLPRPRPRPIDFPRP,-0.384
13,RRIRKRPPRLPRPRPRPIQMPRP,-0.107
14,RRIRQRPPRLPRPRPRPFVQPRP,-0.0936
15,RRIRWRPPRLPRPRPRPYFEPRP,-0.483
16,RRIRARPPRLPRPRPRPLKKPRP,0.0777
17,RRIRQRPPRLPRPRPRPFGGPRP,0.0432
18,RRIRFRPPRLPRPRPRPCSIPRP,0.0647
19,RRIRYRPPRLPRPRPRPIICPRP,-0.185
20,RRIRFRPPRLPRPRPRPNYFPRP,-0.383
21,RRIRHRPPRLPRPRPRPHRTPRP,-0.179
22,RRIRDRPPRLPRPRPRPGLQPRP,0.56
23,RRIRKRPPRLPRPRPRPEVSPRP,0.219

row,Sequence,shrunken log2 fold change
1,RRIRYRPPRLPRPRPRPLQKPRP,-0.0364
2,RRIRERPPRLPRPRPRPNCEPRP,-0.155
3,RRIRYRPPRLPRPRPRPGNWPRP,-0.163
4,RRIRVRPPRLPRPRPRPVYWPRP,0.0159
5,RRIRPRPPRLPRPRPRPYHAPRP,-0.19
6,RRIRIRPPRLPRPRPRPNDMPRP,-1.13
7,RRIRDRPPRLPRPRPRPNTDPRP,-0.179
8,RRIRPRPPRLPRPRPRPDYPPRP,-0.0173
9,RRIRIRPPRLPRPRPRPDCWPRP,0.103
10,RRIRNRPPRLPRPRPRPGHGPRP,-0.19
11,RRIRIRPPRLPRPRPRPQVWPRP,-0.0966
12,RRIRSRPPRLPRPRPRPCVKPRP,-0.414
13,RRIRERPPRLPRPRPRPVSMPRP,-0.295
14,RRIRCRPPRLPRPRPRPSICPRP,-0.194
15,RRIRWRPPRLPRPRPRPGMIPRP,-0.0827
16,RRIRARPPRLPRPRPRPNNMPRP,-0.516
17,RRIRTRPPRLPRPRPRPLAKPRP,0.0419
18,RRIRQRPPRLPRPRPRPYPMPRP,0.0253
19,RRIRDRPPRLPRPRPRPVSEPRP,0.514
20,RRIRKRPPRLPRPRPRPVRPPRP,1.28
21,RRIRLRPPRLPRPRPRPCPIPRP,-0.335
22,RRIRCRPPRLPRPRPRPADQPRP,-0.0916
23,RRIRCRPPRLPRPRPRPQGVPRP,0.0642

row,Sequence,shrunken log2 fold change
1,RRIRYRPPRLPRPRPRPATLPRP,-0.307
2,RRIRLRPPRLPRPRPRPVTNPRP,-0.0302
3,RRIRYRPPRLPRPRPRPLDFPRP,-0.269
4,RRIRCRPPRLPRPRPRPDWRPRP,0.243
5,RRIRWRPPRLPRPRPRPMQNPRP,0.459
6,RRIRTRPPRLPRPRPRPFGSPRP,0.0169
7,RRIRIRPPRLPRPRPRPHECPRP,-0.164
8,RRIRFRPPRLPRPRPRPNYLPRP,-0.381
9,RRIRWRPPRLPRPRPRPTIVPRP,-0.33
10,RRIRFRPPRLPRPRPRPNTEPRP,-0.479
11,RRIRTRPPRLPRPRPRPSDEPRP,-0.516
12,RRIRYRPPRLPRPRPRPEDSPRP,-0.0108
13,RRIRTRPPRLPRPRPRPGENPRP,0.182
14,RRIRHRPPRLPRPRPRPVQYPRP,0.00489
15,RRIRHRPPRLPRPRPRPVYMPRP,-0.2
16,RRIRLRPPRLPRPRPRPLRCPRP,-0.0152
17,RRIRSRPPRLPRPRPRPFEQPRP,-0.0212
18,RRIRYRPPRLPRPRPRPFPFPRP,-0.271
19,RRIRMRPPRLPRPRPRPCAWPRP,0.513
20,RRIRNRPPRLPRPRPRPKCFPRP,-0.192
21,RRIRFRPPRLPRPRPRPNLDPRP,-0.18
22,RRIRARPPRLPRPRPRPYMDPRP,-0.0602
23,RRIRYRPPRLPRPRPRPRKRPRP,0.266

row,Sequence,shrunken log2 fold change
1,RRIRLRPPRLPRPRPRPCVGPRP,-0.0253
2,RRIRMRPPRLPRPRPRPDWIPRP,-0.017
3,RRIRTRPPRLPRPRPRPYQGPRP,-0.0132
4,RRIRIRPPRLPRPRPRPYPHPRP,-1.02
5,RRIRNRPPRLPRPRPRPAKEPRP,0.0446
6,RRIRIRPPRLPRPRPRPRFMPRP,-0.143
7,RRIRYRPPRLPRPRPRPHGTPRP,-0.209
8,RRIRARPPRLPRPRPRPVNWPRP,0.459
9,RRIRVRPPRLPRPRPRPDHRPRP,-0.272
10,RRIRDRPPRLPRPRPRPTQSPRP,0.439
11,RRIRKRPPRLPRPRPRPVTKPRP,0.063
12,RRIRKRPPRLPRPRPRPDHGPRP,1.01
13,RRIRLRPPRLPRPRPRPKSGPRP,0.143
14,RRIRWRPPRLPRPRPRPKRTPRP,0.668
15,RRIRDRPPRLPRPRPRPTPFPRP,-0.13
16,RRIRWRPPRLPRPRPRPFHYPRP,-2.18
17,RRIRPRPPRLPRPRPRPEEAPRP,0.0763
18,RRIRGRPPRLPRPRPRPWGCPRP,0.702
19,RRIRWRPPRLPRPRPRPAVKPRP,-0.197
20,RRIRRRPPRLPRPRPRPKDHPRP,0.0887
21,RRIRFRPPRLPRPRPRPPLCPRP,0.282
22,RRIRSRPPRLPRPRPRPSNPPRP,-0.257
